Assay results from paper PMC8085152 (Journal of molecular biology, 2021).

Key:
[1] = molecular target: α-synuclein (αS) monomers, full-length 1-140 (UniProt P37840); test: co-sedimentation
[2] = molecular target: TDP-43 PrLD sonicated fibrils (UniProt Q13148 267-414); test: ThT fluorescence seeding kinetics

Molecule	stoichiometry N (TDP-43 PrLD per αS) [1]	binding result [2]
TDP-43 PrLD (residues 267-414) monomers, hexahistidine-TEV fusion construct (from UniProt Q13148 267-414) (domain or fragment)	1.2	
TDP-43 PrLD (residues 267-414) monomers, hexahistidine-TEV fusion construct (domain or fragment, UniProt Q13148 267-414, looked up) NRQLERSGRFGGNPGGFGNQGGFGNSRGGGAGLGNNQGSNMGGGMNFGAFSINPAMMAAAQAALQSSWGMMGMLASQQNQSGPSGNNQNQGNMQREPNQAFGSGNNSYSGSNSGAAIGWGSASNAGSGSGFNGGFGSSMDSKSSGWGM		binds
